This note sets out measurements from PMC10602602, “The apiosyltransferase celery UGT94AX1 catalyzes the biosynthesis of the flavone glycoside apiin” (Plant Physiology, 2023).

B1: AgApiT (UGT94AX1) (Apium graveolens) (protein)
chain: MGSENAKTRILMFPYLAYGHISPFVELAKQLTKRNFHIYLCSTPINLASVKKRADEDDNIQLLEFHLPSSPELPPRYHCSTGLPAELNPVLLRVFENAGPVFVDILKDIKPDLVIYDFMPSWPAQVALSLNIQVVYFSIFPVPMCCLPLHDSKRAGEKFPYQNVVIPQSPNRFALMASRNLLNCFEKTCKFALVKGLREVEGKYIDLLSDLADKDIIAVGPLVHVSMEKEDDKTKSILKWLDSKEKSSVVFVCFGSESYLSAEETIEMANALETTKCNFIWAMKFPQEKKDSVQLPDGFVERVGELGMILDGWVPQTMILGHPSTGVFLSHCGWSSVNESMKFGVPIIGMPMRYDLALIAKLVVEIGVGMEIVKNNQGKFDREGIVNVLRKVLEDGSEVKAKATELSLKINEKGEEDLDKAAEELMQICRNKKEIQG
notes: full ORF, codon-optimized synthetic gene, pCold ProS2, E. coli BL21(DE3); His/ProS2 tag cut off with HRV3C protease; 49 kDa
B2: AgApiT (UGT94AX1) (Apium graveolens; L356Q) (protein)
chain: B1 chain with L356Q
notes: as for B1
B3: AgApiT (UGT94AX1) (Apium graveolens; I139V) (protein)
chain: B1 chain with I139V
notes: as for B1

Changes are numbered by the printed parent chain. Numbers in names are those of the source.

Substrate in the first data set: O=c1cc(-c2ccc(O)cc2)oc2cc(O[C@@H]3O[C@H](CO)[C@@H](O)[C@H](O)[C@H]3O)cc(O)c12
Nature of the data set: reversed-phase HPLC glycosyltransferase assay, Michaelis-Menten nonlinear fit. The format is biochemical, Apium graveolens. The settings on record: donor UDP-Api, 200 mM Tris-HCl, 50 mM NaCl, pH 7.0, 23 °C. The text has this:
(§1) reversed-phase HPLC glycosyltransferase assay, Michaelis-Menten nonlinear fit on AgApiT (UGT94AX1)
As to B1, the Km was 15 ± 3 µM, the kcat was 0.00088 ± 5e-05 s⁻¹ and the catalytic efficiency (kcat/Km) turned out to be 58 ± 15 M⁻¹ s⁻¹.
For B2, in that order: 52 ± 9 µM, 0.00021 ± 2e-05 s⁻¹ and 2.1 ± 0.3 M⁻¹ s⁻¹.
For the protein B3, the Km amounted to 17 ± 1 µM, the kcat was found to be 0.00083 ± 7e-05 s⁻¹ and the specificity constant (kcat/Km) amounted to 50 ± 18 M⁻¹ s⁻¹.

Substrate in a further data set: O=c1ccn([C@@H]2O[C@H](COP(=O)(O)OP(=O)(O)O[C@H]3OC[C@](O)(CO)[C@H]3O)[C@@H](O)[C@H]2O)c(=O)[nH]1
The data set is described as above. The format is biochemical, Apium graveolens. As to conditions: acceptor apigenin 7-O-glucoside, 200 mM Tris-HCl, 50 mM NaCl, pH 7.0, 23 °C.
Source text: as §1
With B1, the Km was found to be 8.6 ± 0.6 µM, the kcat stood at 0.00065 ± 1e-05 s⁻¹ and the kcat/Km is 76 ± 6 M⁻¹ s⁻¹.
With B2, the Km is on record as 390 ± 60 µM, the turnover number (kcat) worked out at 0.00014 ± 1e-05 s⁻¹ and the specificity constant (kcat/Km) amounted to 0.36 ± 0.08 M⁻¹ s⁻¹.
For the protein B3, the Km came out at 17 ± 1 µM, the catalytic constant (kcat) stood at 0.00047 ± 1e-05 s⁻¹ and the kcat/Km was found to be 28 ± 3 M⁻¹ s⁻¹.

The Km is the substrate concentration at which the rate is half of its maximum. As usually defined, the kcat is the number of substrate molecules converted per active site and unit of time at saturation. What is called kcat/Km is the turnover number divided by the Michaelis constant.
